Measured values reported in PMC3228899 (Nature, 2011).

B1: Cks1 (endogenous, in yeast) (natural protein, UniProt P20486 1-150, looked up)
chain: MYHHYHAFQGRKLTDQERARVLEFQDSIHYSPRYSDDNYEYRHVMLPKAMLKVIPSDYFNSEVGTLRILTEDEWRGLGITQSLGWEHYECHAPEPHILLFKRPLNYEAELRAATAAAQQQQQQQQQQQQQQQQHQTQSISNDMQVPPQIS
B2: full-length Sic1 (natural protein, budding yeast, UniProt P38634 1-284, looked up)
chain: MTPSTPPRSRGTRYLAQPSGNTSSSALMQGQKTPQKPSQNLVPVTPSTTKSFKNAPLLAPPNSNMGMTSPFNGLTSPQRSPFPKSSVKRTLFQFESHDNGTVREEQEPLGRVNRILFPTQQNVDIDAAEEEEEGEVLLPPSRPTSARQLHLSLERDEFDQTHRKKIIKDVPGTPSDKVITFELAKNWNNNSPKNDARSQESEDEEDIIINPVRVGKNPFASDELVTQEIRNERKRAMLRENPDIEDVITYVNKKGEVVEKRRLTDEEKRRFKPKALFQSRDQEH

What was measured:
3HA-Cln2-Cdk1 complex = 3HA-Cln2-Cdk1 complex (budding yeast | budding yeast …, UniProt P20438 1-545; P00546 1-298)
Clb5-TAP-Cdk1 complex = Clb5-TAP-Cdk1 complex (budding yeast | budding yeast …, UniProt P30283 1-435; P00546 1-298); assay: pull-down
Chain of Clb5-TAP-Cdk1 complex (P30283 whole entry, chain 1 of 2): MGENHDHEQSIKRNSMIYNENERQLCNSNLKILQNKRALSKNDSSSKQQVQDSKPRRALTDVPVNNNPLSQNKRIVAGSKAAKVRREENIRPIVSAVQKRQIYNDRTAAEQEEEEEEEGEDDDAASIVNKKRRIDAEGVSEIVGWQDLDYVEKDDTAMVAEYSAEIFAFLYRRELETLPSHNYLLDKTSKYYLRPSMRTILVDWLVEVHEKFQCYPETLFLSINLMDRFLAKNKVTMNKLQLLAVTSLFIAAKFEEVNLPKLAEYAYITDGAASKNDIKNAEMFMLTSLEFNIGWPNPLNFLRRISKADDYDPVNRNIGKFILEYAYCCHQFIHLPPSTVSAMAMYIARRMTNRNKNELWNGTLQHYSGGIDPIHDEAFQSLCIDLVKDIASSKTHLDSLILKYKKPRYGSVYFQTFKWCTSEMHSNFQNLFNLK
Chain of Clb5-TAP-Cdk1 complex (P00546 whole entry, chain 2 of 2): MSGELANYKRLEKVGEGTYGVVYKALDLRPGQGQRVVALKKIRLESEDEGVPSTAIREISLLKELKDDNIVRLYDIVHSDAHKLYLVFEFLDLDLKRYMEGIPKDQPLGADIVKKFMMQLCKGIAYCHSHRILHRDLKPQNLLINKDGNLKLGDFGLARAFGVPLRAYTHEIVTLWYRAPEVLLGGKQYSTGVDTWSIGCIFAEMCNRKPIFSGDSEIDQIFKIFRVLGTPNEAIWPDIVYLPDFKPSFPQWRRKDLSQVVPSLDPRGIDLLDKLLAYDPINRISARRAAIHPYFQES

Chain of 3HA-Cln2-Cdk1 complex (P20438 whole entry, chain 1 of 2): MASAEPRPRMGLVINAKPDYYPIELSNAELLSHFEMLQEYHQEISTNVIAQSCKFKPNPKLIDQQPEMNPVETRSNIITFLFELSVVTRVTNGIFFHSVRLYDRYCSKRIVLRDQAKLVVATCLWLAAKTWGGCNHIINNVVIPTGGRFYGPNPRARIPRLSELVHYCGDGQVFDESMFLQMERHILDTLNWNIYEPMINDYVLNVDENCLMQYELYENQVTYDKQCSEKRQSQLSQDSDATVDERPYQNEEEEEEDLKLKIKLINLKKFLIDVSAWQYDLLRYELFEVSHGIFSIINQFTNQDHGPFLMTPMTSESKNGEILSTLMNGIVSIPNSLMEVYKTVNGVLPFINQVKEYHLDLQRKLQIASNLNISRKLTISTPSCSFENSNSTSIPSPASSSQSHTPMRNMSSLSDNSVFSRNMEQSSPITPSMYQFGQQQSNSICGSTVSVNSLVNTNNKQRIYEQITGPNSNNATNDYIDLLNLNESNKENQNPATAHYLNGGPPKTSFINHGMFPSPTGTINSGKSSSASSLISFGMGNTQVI
Chain of 3HA-Cln2-Cdk1 complex (P00546 whole entry, chain 2 of 2): as the sequence (P00546 whole entry, chain 2 of 2) above

Binder	stoichiometry N (3HA-Cln2-Cdk1 complex)	binding result (Clb5-TAP-Cdk1 complex)
B1	~1 Cks1:Cdk1	
B2		binds
